Data: US6022855A, “Methods and reagents for inhibiting furin endoprotease” (Oregan Health Sciences University, priority 1995, dated 2000)

B1: α1 -NAT: native α1-antitrypsin, naturally-occurring protease inhibitor (-Ala-Ile-Pro-Met- at positions 355-358) (protein)
chain: EDPQGDAAQKTDTSHHDQDHPTFNKITPNLAEFAFSLYRQLAHQSNSTNIFFSPVSIATAFAMLSLGTKADTHDEILEGLNFNLTQIPEAQIHEGFQELLRTLNQPDSQLQLTTGNGLFLSQGLKLVDKFLEDVKKLYHSEAFTVNFGDTEQAKKQINDYVEKGTQGKIVDLVKELDRDTVFALVNYIFFKGKWERPFEVKDTEEEDFHVDQVTTVKVPMMKRLGMFNIQHCKKLSSWVLLMKYLGNATAIFFLPDEGKLQHLENELTHDIITKFLENEDRRSASLHLPKLSITGTYDLKSVLGQLGITKVFSNGADLSGVTEEAPLKLSKAVHKAVLTIDEKGTEAAGAMFLEAIPMSIPPEVKFNKPFVFLMIEQNTKSPLFMGKVVNPTGK
B2: α1 -PIT: naturally-occurring variant α1-antitrypsin Pittsburgh, Met358→Arg358 mutation (Ala355-Ile-Pro-Arg358) (protein)
chain: EDPQGDAAQKTDTSHHDQDHPTFNKITPNLAEFAFSLYRQLAHQSNSTNIFFSPVSIATAFAMLSLGTKADTHDEILEGLNFNLTQIPEAQIHEGFQELLRTLNQPDSQLQLTTGNGLFLSQGLKLVDKFLEDVKKLYHSEAFTVNFGDTEQAKKQINDYVEKGTQGKIVDLVKELDRDTVFALVNYIFFKGKWERPFEVKDTEEEDFHVDQVTTVKVPMMKRLGMFNIQHCKKLSSWVLLMKYLGNATAIFFLPDEGKLQHLENELTHDIITKFLENEDRRSASLHLPKLSITGTYDLKSVLGQLGITKVFSNGADLSGVTEEAPLKLSKAVHKAVLTIDEKGTEAAGAMFLEAIPRSIPPEVKFNKPFVFLMIEQNTKSPLFMGKVVNPTGK

Assays:
elastase [1] = target: elastase
thrombin [2] = target: thrombin
[3] = target: furin endoprotease endogenous to BSC-40 cells
Human furin = type: biochemical; conditions: for percent endoprotease activity in presence of each serpin (Furin): relative concentration of serpin inhibitor 100; for inhibition of furin endoprotease activity (FIG. 2, in words): serpin 10 μg/mL, 20 min 37° C. pre-incubation, substrate 50 μM
elastase [4] = type: biochemical; conditions: relative concentration of serpin inhibitor 100
[5] = system: furin-mediated processing of pro-β-NGF in BSC-40 cells; type: cell-based, African green monkey
[6] = system: furin-mediated processing of HIV-1 gp160 in BSC-40 cells; type: cell-based, African green monkey
[7] = system: syncytium formation IP/IR cells / CD4+ HeLa cells; type: cell-based, human; conditions: serpin co-expressed with gp160 in IP/IR cells
thrombin [8] = type: biochemical

Row | Molecule | percent endoprotease activity in presence of each serpin (elastase [1]) [%] | percent endoprotease activity in presence of each serpin (thrombin [2]) [%] | percent of pro-β-NGF processed in VV:mNGF-infected BSC-40 cells with α1 -PDX protein in the medium (densitometry) (% processed at 50 µg/mL) [3] | percent endoprotease activity in presence of each serpin (Furin) (Human furin) [%] | inhibition of furin endoprotease activity (FIG. 2, in words) (Human furin) | percent endoprotease activity in presence of each serpin (Elastase) (elastase [4]) [%] | forms of β-NGF secreted by co-infected cells (FIG. 3) [5] | gp160 processing products in co-infected cells (FIG. 4) [6] | effect on gp41-mediated syncytia formation (FIGS. 6D-6F) [7] | inhibition of thrombin endoprotease activity (FIG. 2, in words) (thrombin [8]; FIG. 2) | percent endoprotease activity in presence of each serpin (Thrombin) (thrombin [8]; relative concentration of serpin inhibitor 100) [%]
1 | α1 -antitrypsin Portland | 101 | 95 | 10 | – | – | – | – | – | – | – | –
2 | α1 -antitrypsin Pittsburgh | 98 | 8 | – | – | – | – | – | – | – | – | –
3 | native α1 -antitrypsin | 13 | – | – | – | – | – | – | – | – | – | –
4 | B1 | – | – | – | 101 | unable to inhibit | 13 | produced both the processed and unprocessed forms of β-NGF | produced both unprocessed gp160 and processed gp120 and gp41 | had no effect on syncytia formation | – | –
5 | B2 | – | – | – | 97 | not furin | 98 | produced both the processed and unprocessed forms of β-NGF | produced both unprocessed gp160 and processed gp120 and gp41 | had no effect on syncytia formation | specifically inhibited | 8
